Assay results: patent US7387779B2, “Anti-angiogenic proteins and fragments and methods of use thereof” (Beth Israel Deaconess Medical Center, priority 1998, dated 2008)

Legend:
C-PAE cells = assay: Endothelial cell proliferation, 3H-thymidine incorporation; assay type: cell-based, bovine
Procedure: C-PAE cells were grown to confluence in DMEM with 10% fetal calf serum (FCS) and kept contact inhibited for 48 hours. Control cells were 786-O (renal carcinoma) cells, PC-3 cells, HPEC cells, and A-498 (renal carcinoma) cells. Cells were harvested with trypsinization (Life Technologies/Gibco BRL, Gaithersburg, Md., USA) at 37° C. for five minutes. A suspension of 12,500 cells in DMEM with 1% FCS was added to each well of a 24-well plate coated with 10 μg/ml fibronectin. The cells were incubated for 24 hours at 37° C. with 5% CO2 and 95% humidity. […] Unstimulated controls received no bFGF. Cells were treated with concentrations of Arresten or endostatin ranging from 0.01 to 50 μg/ml. All wells received 1 μCurie of ^3H-thymidine at the time of treatment. After 24 hours, medium was removed and the wells were washed with PBS. Cells were extracted with 1N NaOH and added to a scintillation vial containing 4 ml of ScintiVerse II (Fisher Scientific, Pittsburgh, Pa., USA) solution. Thymidine incorporation was measured using a scintillation counter. The results are shown in FIGS. 3A and 3B, which are a pair of graphs showing incorporation of ^3H-thymidine into C-PAE cells treated with varying amounts of Arresten (FIG. 3A) or endostatin (FIG. 3B). Arresten appeared to inhibit thymidine incorporation in C-PAE as well as did endostatin. Behavior of control cells treated with Arresten and endostatin is also shown in FIG. 4A, 4B, 4C, and 4D, with Arresten having little effect on 786-O cells (FIG. 4A), PC-3 cells (FIG. 4B), or HPEC cells (FIG. 4C). Endostatin had little effect on A-498 cells (FIG. 4D). All groups in FIGS. 3 and 4 represent triplicate samples.
Bovine calf aortic endothelial (C-PAE) cells were grown to confluence in DMEM with 10% fetal calf serum (FCS) and kept contact inhibited for 48 hours. […] Radioactivity was extracted with 1N NaOH and added to a scintillation vial containing 4 ml of ScintiVerse II (Fisher Scientific, Pittsburgh, Pa., USA) solution. Thymidine incorporation was measured using a scintillation counter. […]

WM-164 cells = assay: Melanoma cell proliferation, methylene blue staining; assay type: cell-based, human; conditions: for Relative Cell No. (%) WM-164: 3% FCS, 50 μg/ml recombinant protein
Procedure: In the methylene-blue staining method, 7000 cells were plated into each well of a 96-well plate, and treated as described above. Cells were then counted using the method of Oliver et al. (1989, J. Cell. Sci. 92:513-8). After 48 hours of treatment, all wells were washed with 100 μl of PBS, and the cells fixed with 10% formalin in neutral-buffered saline (Sigma Chemical Co., St. Louis, Mo., USA). The cells were then stained with 1% methylene blue (Sigma) in 0.01M borate buffer, pH 8.5. Wells were washed with 0.01M borate buffer, and the methylene blue extracted from the cells with 0.1N HCl/ethanol, and the absorbance measured in a microplate reader (Bio-Rad, Hercules, Calif., USA) at 655 nm. Polymyxin B (Sigma) at a final concentration of 5 μg/ml was used to inactivate endotoxin (Liu, S. et al., 1997, Clin. Biochem. 30:455-63).
Endothelial cell proliferation was performed by ^3H-thymidine incorporation or methylene blue staining as described above in Example 25. C-PAE cells (passages 2-4) were grown to confluence and kept contact inhibited for 48 hours. 786-O, PC-3 and WM-164 cells were used as non-endothelial controls, and were cultured as described in Example 25, above. HPE (human primary prostate epithelial cells) were cultured in keratinocyte-SFM supplemented with bovine pituitary and recombinant human EGF (Life Technologies/Gibco BRL, Gaithersburg, Md., USA). The melanoma cell line WM-164 was obtained from Dr. Meenhard Herlyn at the Wistar Institute (Philadelphia, Pa., USA), and was cultivated in 78% MCDB-153 medium, 10% L-15 medium, 10% tryptose phosphate broth, 2% FBS, and 50 units/ml insulin, as described by Herlyn et al. (1990, Adv. Cancer Res. 54:213-34).
Proliferation of endothelial cells (C-PAE cells) and WM-164 melanoma cells was assayed by methylene blue staining, as described above in Examples 25 and 34. The results are shown in FIGS. 33A and 33B, which are a pair of graphs showing the effect of increasing concentration (x-axis) of Tumstatin, Tum-1, Tum-2, Tum-3 and Tum-4 on the relative number (y-axis) of C-PAE cells (FIG. 33A) and WM-164 cells (FIG. 33B). […] Tum-4, however, did have anti-proliferative activity in this cell line. […] Only Tum-4 inhibited WM-164 melanoma cells.

B1: Canstatin: NC1 domain of the α2 chain of Type IV collagen (SEQ ID NO:6) (protein, listed as Homo sapiens)
chain: VSIGYLLVKHSQTDQEPMCPVGMNKLWSGYSLLYFEGQEKAHNQDLGLAGSCLARFSTMPFLYCNPGDVCYYASRNDKSYWLSTTAPLPMMPVAEDEIKPYISRCSVCEAPAIAIAVHSQDVSIPHCPAGWRSLWIGYSFLMHTAAGDEGGGQSLVSPGSCLEDFRATPFIECNGGRGTCHYYANKYSFWLTTIPEQSFQGSPSADTLKAGLIRTHISRCQVCMKNL
For B1, which “ED50, inhibition of proliferation” value (C-PAE cells; 10% serum-stimulated) is on record?
Its value is “approximately 0.5 μg/ml”.

B2: Tumstatin-44-131: residues 44 to 131 of full-length Tumstatin (SEQ ID NO:33) (protein)
chain: FSFLFVQGNQRAHGQDLGTLGSCLQRFTTMPFLFCNVNDVCNFASRNDYSYWLSTPALMPMNMAPITGRALEPYISRCTVCEGPAIAI
modifications: Tumstatin-45-132 (amino acids 45-132 of SEQ ID NO10)
With B2 as the molecule, how does the “effect on proliferation of WM-164 cells” value (WM-164 cells) read?
Its value is “not observed”.

B3: Tum-1: residues 54 to 244 of Tumstatin, lacking the N-terminal 53 amino acids (SEQ ID NO:22) (protein)
chain: QRAHGQDLGTLGSCLQRFTTMPFLFCNVNDVCNFASRNDYSYWLSTPALMPMNMAPITGRALEPYISRCTVCEGPAIAIAVHSQTTDIPPCPHGWISLWKGFSFIMFTSAGSEGTGQALASPGSCLEEFRASPFLECHGRGTCNYYSNSYSFWLASLNPERMFRKPIPSTVKAGELEKIISRCQVCMKKRH
modifications: Tum-1 (Tumstatin N-53) (amino acids 54-244 of SEQ ID NO10)
For B3, which “effect on proliferation of WM-164 cells” value (WM-164 cells) is on record?
Its value is “not affected”.

And the “Relative Cell No. (%) WM-164” value (WM-164 cells)?
Its value is 100.7 ± 2.7%.

B4: Tum-2: residues 1 to 132 of Tumstatin (SEQ ID NO:23) (protein)
chain: GLKGKRGDSGSPATWTTRGFVFTRHSQTTAIPSCPEGTVPLYSGFSFLFVQGNQRAHGQDLGTLGSCLQRFTTMPFLFCNVNDVCNFASRNDYSYWLSTPALMPMNMAPITGRALEPYISRCTVCEGPAIAI
modifications: Tum-2 (amino acids 1-132 of SEQ ID NO10)
Which results are given for B4?
effect on proliferation of WM-164 cells (WM-164 cells): not affected; Relative Cell No. (%) WM-164 (WM-164 cells): 96.2 ± 3.7%

B5: endostatin: tumor associated angiogenesis inhibitor used as comparator (protein, UniProt P39060 1572-1754, looked up)
Endostatin: HSHRDFQPVLHLVALNSPLSGGMRGIRGADFQCFQQARAVGLAGTFRAFLSSRLQDLYSIVRRADRAAVPIVNLKDELLFPSWEALFSGSEGPLKPGARIFSFDGKDVLRHPTWPQKSVWHGSDPNGRRLTESYCETWRTEAPSATGQASSLLGGRLLGQSAASCHHAYIVLCIENSFMTASK
modifications: Endostatin
B5 was tested. Which “ED50, inhibition of proliferation” value (C-PAE cells; bFGF-stimulated, E. Coli-produced Arresten) did it give?
Its value is 0.75 µg/mL.

B6: Tum-4: residues 181 to 244 of Tumstatin (SEQ ID NO:25) (protein)
chain: EFRASPFLECHGRGTCNYYSNSYSFWLASLNPERMFRKPIPSTVKAGELEKIISRCQVCMKKRH
modifications: Tum-4 (amino acids 181-244 of SEQ ID NO10)
Which “inhibition of WM-164 melanoma cells” value (WM-164 cells; 50 μg/ml) does the source give for B6 here?
The value was 46.1%.

What about the “Relative Cell No. (%) WM-164” value (WM-164 cells) of the same molecule?
The value was 52.4 ± 3.4 %.

B7: Tumstatin: NC1 domain of the α3 chain of type IV collagen, residues 1-244 (SEQ ID NO:10) (protein, listed as Homo sapiens)
chain: GLKGKRGDSGSPATWTTRGFVFTRHSQTTAIPSCPEGTVPLYSGFSFLFVQGNQRAHGQDLGTLGSCLQRFTTMPFLFCNVNDVCNFASRNDYSYWLSTPALMPMNMAPITGRALEPYISRCTVCEGPAIAIAVHSQTTDIPPCPHGWISLWKGFSFIMFTSAGSEGTGQALASPGSCLEEFRASPFLECHGRGTCNYYSNSYSFWLASLNPERMFRKPIPSTVKAGELEKIISRCQVCMKKRH
What does the source list for B7?
ED50, inhibition of 3H-thymidine incorporation (C-PAE cells; 20% FCS stimulated): approximately 0.01 mg/ml; effect on proliferation of WM-164 cells (WM-164 cells): no inhibitory effects; Relative Cell No. (%) WM-164 (WM-164 cells): 100.0 ± 2.9%
